Experimental data published in article PMC11167000 (2024).
No end group written: not given here.

B1: BMPR1B (receptor)
chain: KKEDGESTAPTPRPKVLRCKCHHHCPEDSVNNICSTDGYCFTMIEEDDSGLPVVTSGCLGLEGSDFQCRDTPIPHQRRSIECCTERNECNKDLHPTLPPLKNRDFVDGPIHHR
B2: TWSG1 NTD Asp34Ala (protein)
chain: CNKALCASAVSKCLIQELCQCRPGEGNCSCCKECMLCLGALWDECCDCVGMCNPRNYS
modifications: disulfide (positions not given here); also: 7 disulfides in NTD, pairing not given here

Tests used:
human BMP7 [1] = target: T1, human BMP7 (human, UniProt P18075 293-431); assay: SPR; 2 mM EDTA; replicate 1
T1 chain: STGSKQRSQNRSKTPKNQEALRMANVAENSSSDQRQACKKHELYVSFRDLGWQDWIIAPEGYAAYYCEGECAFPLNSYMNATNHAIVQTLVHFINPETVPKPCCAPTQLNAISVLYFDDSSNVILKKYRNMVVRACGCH

[2] = target: T2, human Growth Differentiation Factor 5 (GDF5, A382–R501) (human, UniProt P43026 382-501); assay: SPR; 2 mM EDTA; replicate 1
T2 chain: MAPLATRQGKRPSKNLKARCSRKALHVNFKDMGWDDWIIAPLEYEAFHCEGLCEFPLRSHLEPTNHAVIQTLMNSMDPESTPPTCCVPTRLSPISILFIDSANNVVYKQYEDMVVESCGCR

human BMP2 [3] = target: T3, human BMP2 (human, UniProt P12643 283-396); assay: SPR; 2 mM EDTA; replicate 1
T3 chain: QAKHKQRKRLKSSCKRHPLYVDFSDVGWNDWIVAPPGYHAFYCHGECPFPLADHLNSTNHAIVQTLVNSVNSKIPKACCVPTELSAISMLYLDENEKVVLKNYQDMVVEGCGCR

human BMP7 [4] = target: T1, human BMP7; assay: SPR; 2 mM EDTA; replicate 2
[5] = target: T2, human Growth Differentiation Factor 5 …; assay: SPR; 2 mM EDTA; replicate 2
human BMP2 [6] = target: T3, human BMP2; assay: SPR; 2 mM EDTA; replicate 2
human BMP7 [7] = target: T1, human BMP7; assay: SPR; 2 mM CaCl2; replicate 1
[8] = target: T2, human Growth Differentiation Factor 5 …; assay: SPR; 2 mM CaCl2; replicate 1
human BMP2 [9] = target: T3, human BMP2; assay: SPR; 2 mM CaCl2; replicate 1
human BMP7 [10] = target: T1, human BMP7; assay: SPR; 2 mM CaCl2; replicate 2
[11] = target: T2, human Growth Differentiation Factor 5 …; assay: SPR; 2 mM CaCl2; replicate 2
human BMP2 [12] = target: T3, human BMP2; assay: SPR; 2 mM CaCl2; replicate 2
[13] = target: T2, human Growth Differentiation Factor 5 …; assay: SPR; Ca; replicate 1
human BMP7 [14] = target: T1, human BMP7; assay: SPR; Ca; replicate 1
human BMP2 [15] = target: T3, human BMP2; assay: SPR; Ca; replicate 1
human BMP7 [16] = target: T1, human BMP7; assay: SPR; Ca; replicate 2
human BMP2 [17] = target: T3, human BMP2; assay: SPR; Ca; replicate 2
[18] = target: T2, human Growth Differentiation Factor 5 …; assay: SPR; Ca; replicate 2

Binder | Kd (human BMP7 [1]) | Kd [2] | Kd (human BMP2 [3]) | Kd (human BMP7 [4]) | Kd [5] | Kd (human BMP2 [6]) | Kd (human BMP7 [7]) | Kd [8] | Kd (human BMP2 [9]) | Kd (human BMP7 [10]) | Kd [11] | Kd (human BMP2 [12]) | Kd [13] | Kd (human BMP7 [14]) | Kd (human BMP2 [15]) | Kd (human BMP7 [16]) | Kd (human BMP2 [17]) | Kd [18]
B1 | 13500 nM | 4720 nM | 8140 nM | 12800 nM | 4010 nM | 9540 nM | 2940 nM | 4550 nM | 2120 nM | 5740 nM | 2840 nM | 1650 nM | – | – | – | – | – | –
B2 | – | – | – | – | – | – | – | – | – | – | – | – | 121 nM | 247 nM | 943 nM | 557 nM | 771 nM | 60.6 nM
